# Measurements from patent publication US20200223889A1 (Novo Nordisk, published 2020).
# Positions of bridges follow the written chain, without caps; N, C: chain ends. Non-standard residues stand in square brackets, D forms with d. Phe(3,4-(OMe)2) = COc1ccc(C[C@H](N)C(=O)O)cc1OC; Phe(3,4-Cl2) = N[C@@H](Cc1ccc(Cl)c(Cl)c1)C(=O)O; Phe(4-CN) = N#Cc1ccc(C[C@H](N)C(=O)O)cc1; 1Nal = N[C@@H](Cc1cccc2ccccc12)C(=O)O; Hyp = O=C(O)[C@@H]1C[C@@H](O)CN1; Thz = O=C(O)[C@@H]1CSCN1; Sar = CNCC(=O)O
# How the values were obtained:
# [1] = target: T1, human melanocortin 4 receptor (human, UniProt P32245 1-332); assay: competition with 125-NDP-α-MSH, BHK human MC4R membranes
# T1 construct: whole, on cells; cAMP assay on whole BHK cells; also called MC4R; human MC4 receptor
# T1 sequence (P32245 whole entry): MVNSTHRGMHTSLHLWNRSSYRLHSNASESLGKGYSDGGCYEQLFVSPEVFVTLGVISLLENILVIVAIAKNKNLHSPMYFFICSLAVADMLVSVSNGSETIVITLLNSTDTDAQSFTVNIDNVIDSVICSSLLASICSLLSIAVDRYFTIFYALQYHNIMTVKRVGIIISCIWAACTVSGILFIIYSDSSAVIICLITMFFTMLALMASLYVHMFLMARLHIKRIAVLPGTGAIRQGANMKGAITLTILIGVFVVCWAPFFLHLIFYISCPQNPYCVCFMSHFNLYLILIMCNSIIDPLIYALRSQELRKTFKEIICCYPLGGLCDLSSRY
# Procedure: In order to assess the binding affinity of the selected compounds for the human MC4R competitive binding assays was performed with radiolabeled NDP-alpha MSH (¹²⁵NDP-α-MSH).
# The assay was performed in 96-well filterplates (Unifilter) using BHK cells stably expressing the human MC4 receptor.
# The BHK cell membranes were prepared from frozen or fresh cells that were homogenized in 20 mM HEPES pH 7.1, 5 mM MgCl₂, 1 mg/ml bacitracin (buffer 1) and centrifuged at 15000 rpm at 4° C., 10 min in a Sorvall RC 5B plus, SS-34 rotor. The supernatant was discarded, and the pellets were re-suspended in buffer 1, homogenized and centrifuged two more times. The final pellets were re-suspended in buffer 1 and the protein concentration was measured and adjusted with buffer 1 to 5 mg/ml and the membrane preparation was kept at −80° C. until assay. The assay was run on a dilution of this cell membrane suspension without any further preparation. The suspension was diluted to give maximally 10% specific binding, i.e. to approx. 50-100 fold dilution, optimized after each membrane preparation. The assay was performed in a total volume of 200 μl: 50 μl of cell suspension, 50 μl of ¹²⁵NDP-α-MSH (apx. […] in final concentration), 50 μl of test compound and 50 μl binding buffer were mixed and incubated for 2 h at 25° C. (binding buffer: 25 mM HEPES, pH 7.0, 1 mM CaCl₂), 1 mM MgSO₄, 1 mM EGTA, 0.005% Tween™ 20 and 0.1% HSA or, alternatively, 0.1% ovalbumin (Sigma; catalogue No. A-5503)). Test compounds were dissolved in 100% DMSO and diluted in binding buffer in a dose range from 1 μM to 0.001 nM. Radiolabelled ligand and membranes were diluted in binding buffer. The incubation was stopped by dilution with 8×100 μl ice-cold 0.9% NaCl. The radioactivity retained on the filters was counted using a Packard Topcounter. The data were analysed by non-linear regression analysis of binding curves, using the Windows™ program GraphPad™ Prism (GraphPad Software, USA).
# [2] = target: human melanocortin 1 receptor (human, UniProt Q01726 1-317); assay: cell-based or functional assay
# Sequence of human melanocortin 1 receptor (Q01726 whole entry): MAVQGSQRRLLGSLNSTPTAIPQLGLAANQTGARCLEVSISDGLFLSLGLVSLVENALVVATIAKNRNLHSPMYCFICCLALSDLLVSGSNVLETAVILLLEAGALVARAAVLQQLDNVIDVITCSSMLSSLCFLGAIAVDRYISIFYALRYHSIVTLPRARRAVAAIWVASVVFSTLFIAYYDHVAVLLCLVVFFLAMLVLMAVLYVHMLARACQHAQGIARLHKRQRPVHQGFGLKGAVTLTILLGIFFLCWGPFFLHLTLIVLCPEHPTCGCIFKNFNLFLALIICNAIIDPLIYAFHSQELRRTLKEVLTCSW
# [3] = target: T1, human melanocortin 4 receptor; assay: cell-based or functional assay
Binder,Ki [1] [pM],MC1R cAMP EC50 [2] [pM],MC4R cAMP EC50 [3] [pM]
"cyclo(CAH[dF]R[Phe(3,4-Cl2)]CAKKKW) (disulfide 1-7; SMILES C[C@@H]1NC(=O)[C@@H]2CSSC[C@H](NC(=O)[C@H](Cc3ccc(Cl)c(Cl)c3)NC(=O)[C@H](CCCNC(=N)N)NC(=O)[C@@H](Cc3ccccc3)NC(=O)[C@H](Cc3c[nH]cn3)NC1=O)C(=O)N[C@@H](C)C(=O)N[C@@H](CCCCN)C(=O)N[C@@H](CCCCN)C(=O)N[C@@H](CCCCN)C(=O)N[C@@H](Cc1c[nH]c3ccccc13)C(=O)N2, also called c[c[Cys-Ala-His-D-Phe-Arg-3,4-DiCl-Phe-Cys]-Ala-Lys-Lys-Lys-Trp]) [Chem. 66]",30,220,10
"cyclo(CAH[dF]RWRCAH[dF]RWR) (disulfide 1-8; SMILES C[C@@H]1NC(=O)[C@@H]2CSSC[C@H](NC(=O)[C@H](CCCNC(=N)N)NC(=O)[C@H](Cc3c[nH]c4ccccc34)NC(=O)[C@H](CCCNC(=N)N)NC(=O)[C@@H](Cc3ccccc3)NC(=O)[C@H](Cc3c[nH]cn3)NC1=O)C(=O)N[C@@H](C)C(=O)N[C@@H](Cc1c[nH]cn1)C(=O)N[C@H](Cc1ccccc1)C(=O)N[C@@H](CCCNC(=N)N)C(=O)N[C@@H](Cc1c[nH]c3ccccc13)C(=O)N[C@@H](CCCNC(=N)N)C(=O)N2, also called c[c[Cys-Ala-His-D-Phe-Arg-Trp-Arg-Cys]-Ala-His-D-Phe-Arg-Trp-Arg]) [Chem. 69]",4650,6900,1520
"cyclo(CAH[dF]R[Phe(4-CN)]CAKKKW) (disulfide 1-7; SMILES C[C@@H]1NC(=O)[C@@H]2CSSC[C@H](NC(=O)[C@H](Cc3ccc(C#N)cc3)NC(=O)[C@H](CCCNC(=N)N)NC(=O)[C@@H](Cc3ccccc3)NC(=O)[C@H](Cc3c[nH]cn3)NC1=O)C(=O)N[C@@H](C)C(=O)N[C@@H](CCCCN)C(=O)N[C@@H](CCCCN)C(=O)N[C@@H](CCCCN)C(=O)N[C@@H](Cc1c[nH]c3ccccc13)C(=O)N2, also called c[c[Cys-Ala-His-D-Phe-Arg-4-CN-Phe-Cys]-Ala-Lys-Lys-Lys-Trp]) [Chem. 65]",470,10800,420
"cyclo(CH[dF]RWRCH[dF]RWR) (disulfide 1-7; SMILES N=C(N)NCCC[C@@H]1NC(=O)[C@H](Cc2c[nH]c3ccccc23)NC(=O)[C@H](CCCNC(=N)N)NC(=O)[C@@H](Cc2ccccc2)NC(=O)[C@H](Cc2c[nH]cn2)NC(=O)[C@@H]2CSSC[C@H](NC1=O)C(=O)N[C@@H](Cc1c[nH]cn1)C(=O)N[C@H](Cc1ccccc1)C(=O)N[C@@H](CCCNC(=N)N)C(=O)N[C@@H](Cc1c[nH]c3ccccc13)C(=O)N[C@@H](CCCNC(=N)N)C(=O)N2, also called c[c[Cys-His-D-Phe-Arg-Trp-Arg-Cys]-His-D-Phe-Arg-Trp-Arg]) [Chem. 68]",10400,4870,4350
"cyclo(C[Sar]H[dF]HWCAKKKR) (disulfide 1-7; SMILES C[C@@H]1NC(=O)[C@@H]2CSSC[C@H](NC(=O)[C@H](CCCNC(=N)N)NC(=O)[C@H](CCCCN)NC(=O)[C@H](CCCCN)NC(=O)[C@H](CCCCN)NC1=O)C(=O)N(C)CC(=O)N[C@@H](Cc1c[nH]cn1)C(=O)N[C@H](Cc1ccccc1)C(=O)N[C@@H](Cc1c[nH]cn1)C(=O)N[C@@H](Cc1c[nH]c3ccccc13)C(=O)N2, also called c[c[Cys-Sar-His-D-Phe-His-Trp-Cys]-Ala-Lys-Lys-Lys-Arg]) [Chem. 74]",80,> 5500,290
"cyclo(C[Hyp]H[dF]HWCAKKKR) (disulfide 1-7; SMILES C[C@@H]1NC(=O)[C@@H]2CSSC[C@H](NC(=O)[C@H](CCCNC(=N)N)NC(=O)[C@H](CCCCN)NC(=O)[C@H](CCCCN)NC(=O)[C@H](CCCCN)NC1=O)C(=O)N1C[C@H](O)C[C@H]1C(=O)N[C@@H](Cc1c[nH]cn1)C(=O)N[C@H](Cc1ccccc1)C(=O)N[C@@H](Cc1c[nH]cn1)C(=O)N[C@@H](Cc1c[nH]c3ccccc13)C(=O)N2, also called c[c[Cys-Hyp-His-D-Phe-His-Trp-Cys]-Ala-Lys-Lys-Lys-Arg]) [Chem. 97]",50,23100,190
"cyclo(C[Thz]H[dF]HWCAKKKR) (disulfide 1-7; SMILES C[C@@H]1NC(=O)[C@@H]2CSSC[C@H](NC(=O)[C@H](CCCNC(=N)N)NC(=O)[C@H](CCCCN)NC(=O)[C@H](CCCCN)NC(=O)[C@H](CCCCN)NC1=O)C(=O)N1CSC[C@H]1C(=O)N[C@@H](Cc1c[nH]cn1)C(=O)N[C@H](Cc1ccccc1)C(=O)N[C@@H](Cc1c[nH]cn1)C(=O)N[C@@H](Cc1c[nH]c3ccccc13)C(=O)N2, also called c[c[Cys-THAZ-His-D-Phe-His-Trp-Cys]-Ala-Lys-Lys-Lys-Arg]) [Chem. 100]",40,18500,20
"cyclo(C[Thz]H[dF]HWCAKKAW) (disulfide 1-7; SMILES C[C@@H]1NC(=O)[C@H](CCCCN)NC(=O)[C@H](CCCCN)NC(=O)[C@H](C)NC(=O)[C@@H]2CSSC[C@H](NC(=O)[C@H](Cc3c[nH]c4ccccc34)NC1=O)C(=O)N1CSC[C@H]1C(=O)N[C@@H](Cc1c[nH]cn1)C(=O)N[C@H](Cc1ccccc1)C(=O)N[C@@H](Cc1c[nH]cn1)C(=O)N[C@@H](Cc1c[nH]c3ccccc13)C(=O)N2, also called c[c[Cys-THAZ-His-D-Phe-His-Trp-Cys]-Ala-Lys-Lys-Ala-Trp]) [Chem. 110]",90,63300,50
"cyclo(C[Thz]H[dF]HWCAAKAW) (disulfide 1-7; SMILES C[C@@H]1NC(=O)[C@H](C)NC(=O)[C@@H]2CSSC[C@H](NC(=O)[C@H](Cc3c[nH]c4ccccc34)NC(=O)[C@H](C)NC(=O)[C@H](CCCCN)NC1=O)C(=O)N1CSC[C@H]1C(=O)N[C@@H](Cc1c[nH]cn1)C(=O)N[C@H](Cc1ccccc1)C(=O)N[C@@H](Cc1c[nH]cn1)C(=O)N[C@@H](Cc1c[nH]c3ccccc13)C(=O)N2, also called c[c[Cys-THAZ-His-D-Phe-His-Trp-Cys]-Ala-Ala-Lys-Ala-Trp]) [Chem. 109]",300,> 7000,150
"cyclo(CAH[dF]R[Phe(3,4-(OMe)2)]CAKKKW) (disulfide 1-7; SMILES COc1ccc(C[C@@H]2NC(=O)[C@H](CCCNC(=N)N)NC(=O)[C@@H](Cc3ccccc3)NC(=O)[C@H](Cc3c[nH]cn3)NC(=O)[C@H](C)NC(=O)[C@@H]3CSSC[C@H](NC2=O)C(=O)N[C@@H](C)C(=O)N[C@@H](CCCCN)C(=O)N[C@@H](CCCCN)C(=O)N[C@@H](CCCCN)C(=O)N[C@@H](Cc2c[nH]c4ccccc24)C(=O)N3)cc1OC, also called c[c[Cys-Ala-His-D-Phe-Arg-3,4-DiMeo-Phe-Cys]-Ala-Lys-Lys-Lys-Trp]) [Chem. 67]",950,> 55000,2990
"cyclo(AAH[dF]RWAAH[dF]RW) (SMILES C[C@@H]1NC(=O)[C@H](C)NC(=O)[C@H](Cc2c[nH]c3ccccc23)NC(=O)[C@H](CCCNC(=N)N)NC(=O)[C@@H](Cc2ccccc2)NC(=O)[C@H](Cc2c[nH]cn2)NC(=O)[C@H](C)NC(=O)[C@H](C)NC(=O)[C@H](Cc2c[nH]c3ccccc23)NC(=O)[C@H](CCCNC(=N)N)NC(=O)[C@@H](Cc2ccccc2)NC(=O)[C@H](Cc2c[nH]cn2)NC1=O, also called c[Ala-Ala-His-D-Phe-Arg-Trp-Ala-Ala-His-D-Phe-Arg-Trp]) [Chem. 7]",470,4560,60
"XAHFRWCAHXRW (Pen 1; D-Phe 4, 10; disulphide Pen1-Cys7; head-to-tail amide Pen1-Trp12, also called c[c[Pen-Ala-His-D-Phe-Arg-Trp-Cys]-Ala-His-D-Phe-Arg-Trp]) [Chem. 63]",80,840,20
"cyclo(CAH[dF]R[1Nal]CAKKKW) (disulfide 1-7; SMILES C[C@@H]1NC(=O)[C@@H]2CSSC[C@H](NC(=O)[C@H](Cc3cccc4ccccc34)NC(=O)[C@H](CCCNC(=N)N)NC(=O)[C@@H](Cc3ccccc3)NC(=O)[C@H](Cc3c[nH]cn3)NC1=O)C(=O)N[C@@H](C)C(=O)N[C@@H](CCCCN)C(=O)N[C@@H](CCCCN)C(=O)N[C@@H](CCCCN)C(=O)N[C@@H](Cc1c[nH]c3ccccc13)C(=O)N2, also called c[c[Cys-Ala-His-D-Phe-Arg-1-Nal-Cys]-Ala-Lys-Lys-Lys-Trp]) [Chem. 64]",90,4230,30
